Results reported in patent US20140141023A1 (PIERRE FABRE MEDICAMENT, published 2014).

Assays:
[1] = target: human protein Axl expressed on cells (SN12C human renal tumor cells; CHO-Axl cells) (human) (UniProt P30530); experiment: flow cytometry, labelling of untreated (No Ab) SN12C cells
[2] = target: human protein Axl expressed on cells (SN12C human renal tumor cells; CHO-Axl cells) (human) (UniProt P30530); experiment: QIFIKIT quantitative flow cytometry on MDA-MB-231 cells (breast)
[3] = target: human protein Axl expressed on cells (SN12C human renal tumor cells; CHO-Axl cells) (human) (UniProt P30530); experiment: QIFIKIT quantitative flow cytometry on PC3 cells (prostate)
[4] = target: human protein Axl expressed on cells (SN12C human renal tumor cells; CHO-Axl cells) (human) (UniProt P30530); experiment: QIFIKIT quantitative flow cytometry on DU-145 cells (prostate)
[5] = target: human protein Axl expressed on cells (SN12C human renal tumor cells; CHO-Axl cells) (human) (UniProt P30530); experiment: QIFIKIT quantitative flow cytometry on A172 cells (glioblastoma)
[6] = target: human protein Axl expressed on cells (SN12C human renal tumor cells; CHO-Axl cells) (human) (UniProt P30530); experiment: QIFIKIT quantitative flow cytometry on Calu-1 cells (lung)
[7] = target: human protein Axl expressed on cells (SN12C human renal tumor cells; CHO-Axl cells) (human) (UniProt P30530); experiment: QIFIKIT quantitative flow cytometry on NCI-H125 cells (NSCLC)
[8] = target: human protein Axl expressed on cells (SN12C human renal tumor cells; CHO-Axl cells) (human) (UniProt P30530); experiment: QIFIKIT quantitative flow cytometry on NCI-H226 cells (NSCLC)
[9] = target: human protein Axl expressed on cells (SN12C human renal tumor cells; CHO-Axl cells) (human) (UniProt P30530); experiment: QIFIKIT quantitative flow cytometry on SN12C cells (renal)
[10] = target: human protein Axl expressed on cells (SN12C human renal tumor cells; CHO-Axl cells) (human) (UniProt P30530); experiment: QIFIKIT quantitative flow cytometry on A431 cells (epidermoid carcinoma)
[11] = target: human protein Axl expressed on cells (SN12C human renal tumor cells; CHO-Axl cells) (human) (UniProt P30530); experiment: QIFIKIT quantitative flow cytometry on Panc1 cells (pancreas)
[12] = target: human protein Axl expressed on cells (SN12C human renal tumor cells; CHO-Axl cells) (human) (UniProt P30530); experiment: QIFIKIT quantitative flow cytometry on MCF7 cells (breast)
[13] = target: human protein Axl expressed on cells (SN12C human renal tumor cells; CHO-Axl cells) (human) (UniProt P30530); experiment: Qifikit (Dako) quantitative flow cytometry on SN12C human renal cancer cells
[14] = target: human protein Axl expressed on cells (SN12C human renal tumor cells; CHO-Axl cells) (human) (UniProt P30530); experiment: QIFIKIT quantitative flow cytometry on MDA-MB-435S cells (breast)
[15] = target: human protein Axl expressed on cells (SN12C human renal tumor cells; CHO-Axl cells) (human) (UniProt P30530); experiment: flow cytometry, labelling of SN12C cells treated 24 h with 9G4 at 10 µg/ml
[16] = target: monkey Axl receptor expressed on the surface of COS7 cells (African green monkey); experiment: flow cytometry titration on COS7 cells
[17] = target: monkey Axl receptor expressed on the surface of COS7 cells (African green monkey); experiment: flow cytometry on COS7 cells, goat anti-mouse Alexa 488
[18] = target: T1, human protein Axl expressed on cells (SN12C human renal tumor cells; CHO-Axl cells) (human, UniProt P30530 26-894); experiment: flow cytometry on SN12C cells, goat anti-mouse Alexa 488
T1 construct: also called membrane Axl receptor; cell-surface Axl
T1 sequence: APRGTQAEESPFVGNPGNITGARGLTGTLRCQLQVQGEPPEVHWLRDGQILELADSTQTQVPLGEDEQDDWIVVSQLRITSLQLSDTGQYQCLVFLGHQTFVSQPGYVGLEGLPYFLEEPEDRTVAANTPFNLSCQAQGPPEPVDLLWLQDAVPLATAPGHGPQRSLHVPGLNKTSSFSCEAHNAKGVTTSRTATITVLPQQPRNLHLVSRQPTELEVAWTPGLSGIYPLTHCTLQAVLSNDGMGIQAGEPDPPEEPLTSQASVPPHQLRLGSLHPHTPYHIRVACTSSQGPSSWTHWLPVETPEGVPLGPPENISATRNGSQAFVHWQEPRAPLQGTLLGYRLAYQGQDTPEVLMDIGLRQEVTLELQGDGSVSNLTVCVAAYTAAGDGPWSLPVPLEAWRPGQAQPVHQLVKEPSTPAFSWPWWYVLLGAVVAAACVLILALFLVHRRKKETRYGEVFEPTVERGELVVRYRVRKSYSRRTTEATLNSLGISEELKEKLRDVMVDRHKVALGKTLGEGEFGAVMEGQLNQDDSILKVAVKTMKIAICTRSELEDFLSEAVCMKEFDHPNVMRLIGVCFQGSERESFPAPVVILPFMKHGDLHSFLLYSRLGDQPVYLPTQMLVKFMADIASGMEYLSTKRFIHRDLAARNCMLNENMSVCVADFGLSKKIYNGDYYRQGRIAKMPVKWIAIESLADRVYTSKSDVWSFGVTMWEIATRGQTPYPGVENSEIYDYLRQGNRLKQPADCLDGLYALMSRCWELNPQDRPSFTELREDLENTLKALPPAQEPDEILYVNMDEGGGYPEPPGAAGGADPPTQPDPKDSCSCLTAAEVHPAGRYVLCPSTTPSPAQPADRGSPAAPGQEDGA

Molecule | MFI at T24 h [1] | ABC (Qifikit) [2] | ABC (Qifikit) [3] | ABC (Qifikit) [4] | ABC (Qifikit) [5] | ABC (Qifikit) [6] | ABC (Qifikit) [7] | ABC (Qifikit) [8] | ABC (Qifikit) [9] | ABC (Qifikit) [10] | ABC (Qifikit) [11] | ABC (Qifikit) [12] | Antigen binding capacity (Qifikit) [13] | ABC (Qifikit) [14] | MFI at T24 h [15] | concentration above which the plateau is reached [16] | EC50 (read off the curve) [17] | EC50 (read off the curve) [18]
MAB154 anti-Axl commercial antibody (R and D Systems) | 950 MFI | 61200 ABC | 8420 ABC | 55300 ABC | 52400 ABC | > 100000 ABC | 5540 ABC | 32100 ABC | > 100000 ABC | 3950 ABC | 36800 ABC | 71 ABC | > 100000 ABC | 17800 ABC |  |  |  | 
9G4 (mIgG1 isotype control antibody) | 11 MFI |  |  |  |  |  |  |  |  |  |  |  |  |  | 13 MFI |  |  | 
1613F12 (antibody, V domains shown, also called 1613F12 antibody; 1613F12 Mab) VH: EVHLQQSGAELVKPGASVKLSCTASGFNIRDTYIHWVKQRPEQGLEWIGRLDPANGHTKYGPNFQGRATMTSDTSSNTAYLQLSSLTSEDTAVYYCARGAYYYGSSGLFYFDYWGQGTTLSVSS VL: DVQITQSPSYLATSPGETITINCRASKSISKYLAWYQEKPGKTNKLLIYSGSTLQSGVPSRFSGSGSGTDFTLTISSLEPEDFAMYFCQQHHEYPLTFGAGTELELK |  |  |  |  |  |  |  |  |  |  |  |  |  |  |  | > 420 pM | 1 nM | ~0.9 nM
